Consider 34 molecules from paper PMC10786891, “Massively parallel profiling of RNA-targeting CRISPR-Cas13d”.

Usually Kd stands for the concentration at which binding is half-saturated.

To fix the notation:
T1: EsCas13d, nuclease-dead (Eubacterium siraeum, UniProt B0MS50, R295A;H300A;R849A;H854A)
T1 sequence: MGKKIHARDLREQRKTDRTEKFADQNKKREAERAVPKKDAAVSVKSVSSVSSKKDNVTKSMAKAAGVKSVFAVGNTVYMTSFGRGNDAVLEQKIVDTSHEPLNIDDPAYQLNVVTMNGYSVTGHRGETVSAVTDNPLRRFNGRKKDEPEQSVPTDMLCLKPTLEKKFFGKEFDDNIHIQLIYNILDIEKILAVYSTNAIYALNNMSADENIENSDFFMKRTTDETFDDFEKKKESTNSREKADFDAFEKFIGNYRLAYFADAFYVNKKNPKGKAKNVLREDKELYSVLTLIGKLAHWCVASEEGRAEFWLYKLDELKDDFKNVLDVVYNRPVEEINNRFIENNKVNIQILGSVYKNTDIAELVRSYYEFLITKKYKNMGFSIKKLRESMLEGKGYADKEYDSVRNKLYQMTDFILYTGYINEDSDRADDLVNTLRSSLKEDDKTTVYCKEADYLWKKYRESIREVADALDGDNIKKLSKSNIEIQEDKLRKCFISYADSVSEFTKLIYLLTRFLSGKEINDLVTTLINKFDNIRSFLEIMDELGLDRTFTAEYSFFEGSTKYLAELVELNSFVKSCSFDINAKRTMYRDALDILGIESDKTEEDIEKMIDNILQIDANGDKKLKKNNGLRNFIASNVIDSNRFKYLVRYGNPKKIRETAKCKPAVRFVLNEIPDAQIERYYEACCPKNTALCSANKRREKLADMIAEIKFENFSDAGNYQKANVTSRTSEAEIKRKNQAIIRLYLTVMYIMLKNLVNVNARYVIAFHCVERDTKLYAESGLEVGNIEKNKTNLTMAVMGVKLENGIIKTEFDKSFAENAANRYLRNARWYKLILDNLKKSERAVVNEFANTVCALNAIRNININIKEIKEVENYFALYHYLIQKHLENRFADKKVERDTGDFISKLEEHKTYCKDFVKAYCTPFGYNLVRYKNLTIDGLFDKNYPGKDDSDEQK

B1: target 1 insU 3' of 9,insC 3' of 9 (mixed)
RNA 1: CACCCGUGCAAAAAUGCAGGGGUCUAAAACUGAGCGGAUAACCUCUCUAUGG
RNA 2: GGGAAUGGAUCCACAUCUACGAAUUCGUACCAUAGAGAGGUUAUCUCCGCUCACCGAGAUCGGAAGAGCACACGU
B2: target 1 insG 3' of 18,insG 3' of 18 (mixed)
RNA 1: B1 RNA 1
RNA 2: B1 RNA 2 with A36G, G40A, U41G, U42G, A43U, C45A
B3: target 1 insA 3' of 17,insC 3' of 16 (mixed)
RNA 1: B1 RNA 1
RNA 2: B1 RNA 2 with G37A, A38C, G40A, U41G, U42G, A43U, C45A
B4: target 1 U10A,A14G (mixed)
RNA 1: B1 RNA 1
RNA 2: GGGAAUGGAUCCACAUCUACGAAUUCGUACCAUAGAGGGGUAAUCCGCUCACCGAGAUCGGAAGAGCACACGU
B5: target 1 U11G,A16G (mixed)
RNA 1: B1 RNA 1
RNA 2: B4 RNA 2 with A36G, G38A, U41G, A42U
B6: target 1 insA 3' of 15,insG 3' of 2 (mixed)
RNA 1: B1 RNA 1
RNA 2: GGGAAUGGAUCCACAUCUACGAAUUCGUACCAUAGAGAAGGUUAUCCGCUCGACCGAGAUCGGAAGAGCACACGU
B7: target 1 C4A,G13A (mixed)
RNA 1: B1 RNA 1
RNA 2: B4 RNA 2 with G38A, G39A, A42U, C48A
B8: target 1 U19G,A20U (mixed)
RNA 1: B1 RNA 1
RNA 2: B4 RNA 2 with A32U, U33G, G38A, A42U
B9: target 1 insU 3' of 22,insG 3' of 4 (mixed)
RNA 1: B1 RNA 1
RNA 2: GGGAAUGGAUCCACAUCUACGAAUUCGUACUCAUAGAGAGGUUAUCCGCGUCACCGAGAUCGGAAGAGCACACGU
B10: target 1 insA 3' of 8,insU 3' of 7 (mixed)
RNA 1: B1 RNA 1
RNA 2: B1 RNA 2 with C45A, U46C, C47U
B11: target 1 insU 3' of 21,insA 3' of 17 (mixed)
RNA 1: B1 RNA 1
RNA 2: GGGAAUGGAUCCACAUCUACGAAUUCGUACCUAUAGAAGAGGUUAUCCGCUCACCGAGAUCGGAAGAGCACACGU
B12: target 1 C4A,G15A (mixed)
RNA 1: B1 RNA 1
RNA 2: B4 RNA 2 with G37A, G38A, A42U, C48A
B13: target 1 G5U,C21U (mixed)
RNA 1: B1 RNA 1
RNA 2: B4 RNA 2 with C31U, G38A, A42U, G47U
B14: target 1 complement block 5-12 (mixed)
RNA 1: B1 RNA 1
RNA 2: B4 RNA 2 with G38A, G40C, U41A, A43U, U44A, C45G, C46G, G47C
B15: target 1 A9U,U11G (mixed)
RNA 1: B1 RNA 1
RNA 2: B4 RNA 2 with G38A, U41G, A42U, A43U
B16: target 1 insU 3' of 21,insU 3' of 7 (mixed)
RNA 1: B1 RNA 1
RNA 2: B9 RNA 2 with U31C, C32U, C47U, G48C, C49G, G50C
B17: target 1 U3C,U10G (mixed)
RNA 1: B1 RNA 1
RNA 2: B4 RNA 2 with G38A, A42G, U49C
B18: target 1 insG 3' of 22,insC 3' of 9 (mixed)
RNA 1: B1 RNA 1
RNA 2: B9 RNA 2 with U31G, U45C, C46U, G48C, C49G, G50C
B19: target 1 insU 3' of 18,insA 3' of 13 (mixed)
RNA 1: B1 RNA 1
RNA 2: B11 RNA 2 with U32A, A33U, U34A, A35U, A38G, G39A, A40G, G41A
B20: target 1 complement block 7-10 (mixed)
RNA 1: B1 RNA 1
RNA 2: B4 RNA 2 with G38A, A43U, U44A, C45G
B21: target 1 G12C,A16G (mixed)
RNA 1: B1 RNA 1
RNA 2: B4 RNA 2 with A36G, G38A, G40C, A42U
B22: target 1 insA 3' of 8,insG 3' of 2 (mixed)
RNA 1: B1 RNA 1
RNA 2: B6 RNA 2 with A39G, G41U, U43A, A44U, U45A
B23: target 1 insU 3' of 22,insA 3' of 7 (mixed)
RNA 1: B1 RNA 1
RNA 2: B9 RNA 2 with C47A, G48C, C49G, G50C
B24: target 1 U11G (mixed)
RNA 1: B1 RNA 1
RNA 2: B4 RNA 2 with G38A, U41G, A42U
B25: target 1 C7G,G13U (mixed)
RNA 1: B1 RNA 1
RNA 2: B4 RNA 2 with G38A, G39U, A42U, C45G
B26: target 1 insC 3' of 20,insC 3' of 16 (mixed)
RNA 1: B1 RNA 1
RNA 2: B11 RNA 2 with U32A, A33C, A38C
B27: target 1 insU 3' of 14,insC 3' of 14 (mixed)
RNA 1: B1 RNA 1
RNA 2: B1 RNA 2 with G39U, G40C, U41G, U42G, A43U, C45A
B28: target 1 insA 3' of 12,insU 3' of 1 (mixed)
RNA 1: B1 RNA 1
RNA 2: B6 RNA 2 with A39G, G41A, G52A, A53U
B29: target 1 U10C,C21A (mixed)
RNA 1: B1 RNA 1
RNA 2: B4 RNA 2 with C31A, G38A, A42C
B30: target 1 insA 3' of 19,insC 3' of 13 (mixed)
RNA 1: B1 RNA 1
RNA 2: B11 RNA 2 with U32A, A33U, U34A, A38G, G39A, A40G, G41C
B31: target 1 insU 3' of 17,insC 3' of 13 (mixed)
RNA 1: B1 RNA 1
RNA 2: B1 RNA 2 with A36U, G37A, A38G, G39A, U41C, U42G, A43U, C45A
B32: target 1 insG 3' of 22,insU 3' of 6 (mixed)
RNA 1: B1 RNA 1
RNA 2: B9 RNA 2 with U31G, G48U, C49G, G50C
B33: target 1 insU 3' of 18,insC 3' of 10 (mixed)
RNA 1: B1 RNA 1
RNA 2: B1 RNA 2 with G35U, A36G, G37A, A38G, G39A, U41G, A43U, U44C, C45A
B34: target 1 G5A,U11G (mixed)
RNA 1: B1 RNA 1
RNA 2: B4 RNA 2 with G38A, U41G, A42U, G47A

Substitutions are numbered along the chain they refer to. In names and notes the source's numbering stands.

For the series, the target named is T1, EsCas13d, nuclease-dead. Put plainly: crRNA (strand 1, pre-loaded); Mg2+; 40 mM Tris-HCl pH 7.5, 150 mM NaCl, 6 mM MgCl2, 1 mM DTT, 0.1% Tween-20, 0.2 mg/ml BSA; 25 C; 10 min per concentration, then washed. The settings on record: tags: His6-TwinStrep-SUMO cleaved; N-terminal SNAP kept (SNAP-Surface 488); label: 3' end held by stalled T7 RNA polymerase.
In turn, B1 registered a Kd of 21.5 ± 1.6 nM.

In turn, B2 returned a Kd of 48 ± 4 nM.

In turn, B3 gave a Kd of 11.6 ± 0.7 nM.

For the molecule B4, the equilibrium dissociation constant (Kd) came to 12.3 ± 0.5 nM.

The molecule B5 returned a Kd of 53 ± 6 nM.

B6 registered a Kd of 6.7 ± 0.6 nM.

Consider B7, for which the Kd is 14 ± 4 nM.

On to B8, for which binding was characterised by a dissociation constant (Kd) of 96 ± 35 nM.

Molecule B9 displayed a Kd of 22.3 ± 1.5 nM.

As for B10, the Kd was 12.8 ± 0.5 nM.

B11: the Kd was ~100 nM.

B12 showed a Kd of 20.9 ± 1.8 nM.

For B13, the Kd worked out at 5.96 ± 0.31 nM.

As to B14, the affinity, expressed as Kd, was 15.8 ± 1.5 nM.

Molecule B15 came in with a Kd of 10.1 ± 0.8 nM.

Turning to B16, the Kd is 54 ± 4 nM.

B17 gave a Kd of 26 ± 2.7 nM.

For the molecule B18, binding was characterised by a dissociation constant (Kd) of 26.3 ± 1.6 nM.

B19 gave a Kd of 22.6 ± 2.4 nM.

The molecule B20 displayed a Kd of 11.7 ± 0.7 nM.

B21 came in with a Kd of 75 ± 10 nM.

The molecule B22 had a Kd of 16.7 ± 0.8 nM.

In turn, B23 displayed a Kd of 21.9 ± 1.3 nM.

As to B24, the Kd amounted to 22.4 ± 1.2 nM.

In turn, B25 displayed a Kd of 54 ± 13 nM.

Consider B26, for which the affinity, expressed as Kd, was 16 ± 3 nM.

The molecule B27 displayed a Kd of 37 ± 4 nM.

For B28, binding was characterised by a dissociation constant (Kd) of 37 ± 10 nM.

The molecule B29 showed a Kd of 60 ± 8 nM.

As for B30, binding was characterised by a dissociation constant (Kd) of 35.3 ± 3.3 nM.

As to B31, the affinity, expressed as Kd, was 44 ± 9 nM.

In the case of B32, the Kd came to 49 ± 7 nM.

B33 showed a Kd of 65 ± 24 nM.

Molecule B34 came in with a Kd of 51 ± 5 nM.
